Laboratory results from paper PMC12416549 (2024).

T1: TNFR1 (Homo sapiens, UniProt P19438)
T1 chain: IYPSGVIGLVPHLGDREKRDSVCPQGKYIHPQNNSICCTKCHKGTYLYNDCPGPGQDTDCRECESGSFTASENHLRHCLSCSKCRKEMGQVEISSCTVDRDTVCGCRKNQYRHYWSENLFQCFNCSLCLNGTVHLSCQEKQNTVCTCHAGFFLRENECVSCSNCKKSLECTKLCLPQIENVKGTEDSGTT


Target: T1, TNFR1
Assay: yeast display SC50

apparent Kd (screen)	Binder
0.539 nM	E18Y (designed binder) MTLQELLREEALRRAEAYAFRYALELLAEKFPEQKEYLLDLAEEIESQIRSLSGVDVEDVRKFLDKEWAWVKELLAEHPAELAEVEAARAARLAELRAEVEAKVAA
0.956 nM	A17S (designed binder) MTLQELLREEALRRAESEAFRYALELLAEKFPEQKEYLLDLAEEIESQIRSLSGVDVEDVRKFLDKEWAWVKELLAEHPAELAEVEAARAARLAELRAEVEAKVAA
0.539 nM	K30C (designed binder) MTLQELLREEALRRAEAEAFRYALELLAECFPEQKEYLLDLAEEIESQIRSLSGVDVEDVRKFLDKEWAWVKELLAEHPAELAEVEAARAARLAELRAEVEAKVAA
22.2 nM	F20K (designed binder) MTLQELLREEALRRAEAEAKRYALELLAEKFPEQKEYLLDLAEEIESQIRSLSGVDVEDVRKFLDKEWAWVKELLAEHPAELAEVEAARAARLAELRAEVEAKVAA
2.48 nM	I49Y (designed binder) MTLQELLREEALRRAEAEAFRYALELLAEKFPEQKEYLLDLAEEIESQYRSLSGVDVEDVRKFLDKEWAWVKELLAEHPAELAEVEAARAARLAELRAEVEAKVAA
0.539 nM	A23K (designed binder) MTLQELLREEALRRAEAEAFRYKLELLAEKFPEQKEYLLDLAEEIESQIRSLSGVDVEDVRKFLDKEWAWVKELLAEHPAELAEVEAARAARLAELRAEVEAKVAA

The next lines start with the binder.

Binder	apparent Kd (screen)
A83S (designed binder) MTLQELLREEALRRAEAEAFRYALELLAEKFPEQKEYLLDLAEEIESQIRSLSGVDVEDVRKFLDKEWAWVKELLAEHPAELSEVEAARAARLAELRAEVEAKVAA	0.539 nM
R92C (designed binder) MTLQELLREEALRRAEAEAFRYALELLAEKFPEQKEYLLDLAEEIESQIRSLSGVDVEDVRKFLDKEWAWVKELLAEHPAELAEVEAARAACLAELRAEVEAKVAA	0.718 nM
F63A (designed binder) MTLQELLREEALRRAEAEAFRYALELLAEKFPEQKEYLLDLAEEIESQIRSLSGVDVEDVRKALDKEWAWVKELLAEHPAELAEVEAARAARLAELRAEVEAKVAA	1.27 nM
L74A (designed binder) MTLQELLREEALRRAEAEAFRYALELLAEKFPEQKEYLLDLAEEIESQIRSLSGVDVEDVRKFLDKEWAWVKEALAEHPAELAEVEAARAARLAELRAEVEAKVAA	1.69 nM
E5G (designed binder) MTLQGLLREEALRRAEAEAFRYALELLAEKFPEQKEYLLDLAEEIESQIRSLSGVDVEDVRKFLDKEWAWVKELLAEHPAELAEVEAARAARLAELRAEVEAKVAA	0.653 nM
E73P (designed binder) MTLQELLREEALRRAEAEAFRYALELLAEKFPEQKEYLLDLAEEIESQIRSLSGVDVEDVRKFLDKEWAWVKPLLAEHPAELAEVEAARAARLAELRAEVEAKVAA	5.31 nM
I49Q (designed binder) MTLQELLREEALRRAEAEAFRYALELLAEKFPEQKEYLLDLAEEIESQQRSLSGVDVEDVRKFLDKEWAWVKELLAEHPAELAEVEAARAARLAELRAEVEAKVAA	0.368 nM
G54V (designed binder) MTLQELLREEALRRAEAEAFRYALELLAEKFPEQKEYLLDLAEEIESQIRSLSVVDVEDVRKFLDKEWAWVKELLAEHPAELAEVEAARAARLAELRAEVEAKVAA	0.653 nM
